Article PMC8458281, “Computational modeling and experimental validation of the EPI-X4/CXCR4 complex allows rational design of small peptide antagonists” (Communications Biology, 2021)
No end group written: not given here.

Tests used:
[1] = test system: CXCR4 D262A; experiment: 12G5 antibody competition, 293T cells transfected with CXCR4 D262A; type: binding, human; settings: IC50 on CXCR4 D262A relative to wt
Method: (§1) Fig. 4 The interactions of EPI-X4 and the EPI-X4 derivatives WSC02 and JM#21 with point-mutated CXCR4 were assessed by an antibody competition assay. Amino acid substitutions were introduced in the sequence of CXCR4 by site-directed mutagenesis, cloned into an IRES-eGFP expression vector, and transfected into 293 T cells. Afterward, cells were incubated with serially diluted EPI-X4 (a, b), WSC02 (c, d), or JM#21 (e, f) in presence of a constant concentration of CXCR4 specific antibody (clone 12G5). After 2 h, bound antibody was analyzed by flow cytometry. a, c, e) Representative dose-dependent replacement of 12G5 antibody by peptides. b, d, f) IC50 values were calculated by nonlinear regression. Shown are data derived from at least three individual experiments ± SEM. IC50 values were set to 1000 µM (EPI-X4 and WSC02) or 100 µM (JM#21) if the value exceeds the maximally used concentration. *p ≤ 0.05, ***p ≤ 0.001 (one-way ANOVA for comparison with wt). For IC50 values see Table 1. For all binding curves see also Fig. S8.
(§2) Mutated CXCR4 constructs were transfected into 293 T cells that have a very low endogenous expression level of wild-type CXCR4. Transfected cells were then analyzed for CXCR4 surface expression (Fig. S5a) and EPI-X4 binding using a flow cytometry-based antibody competition assay (Fig. S5b, c)[33]. […]

[2] = test system: CXCR4 L41A; experiment: 12G5 antibody competition, 293T cells transfected with CXCR4 L41A; type: binding, human; settings: IC50 on CXCR4 L41A relative to wt
Method: as §1, §2

[3] = test system: CXCR4 D97E; experiment: 12G5 antibody competition, 293T cells transfected with CXCR4 D97E; type: binding, human; settings: IC50 on CXCR4 D97E relative to wt
Method: as §1, §2

[4] = test system: CXCR4 D97E + V112A + L41A; experiment: 12G5 antibody competition, 293T cells transfected with CXCR4 D97E + V112A + L41A; type: binding, human; settings: IC50 on CXCR4 D97E + V112A + L41A relative to wt
Method: as §1, §2

[5] = test system: CXCR4 D97S; experiment: 12G5 antibody competition, 293T cells transfected with CXCR4 D97S; type: binding, human; settings: IC50 on CXCR4 D97S relative to wt
Method: as §1, §2

[6] = test system: CXCR4 D97E + V112A; experiment: 12G5 antibody competition, 293T cells transfected with CXCR4 D97E + V112A; type: binding, human; settings: IC50 on CXCR4 D97E + V112A relative to wt
Method: as §1, §2

[7] = test system: CXCR4 D97E + V112L; experiment: 12G5 antibody competition, 293T cells transfected with CXCR4 D97E + V112L; type: binding, human; settings: IC50 on CXCR4 D97E + V112L relative to wt
Method: as §1, §2

[8] = test system: CXCR4 V112A + L41A; experiment: 12G5 antibody competition, 293T cells transfected with CXCR4 V112A + L41A; type: binding, human; settings: IC50 on CXCR4 V112A + L41A relative to wt
Method: as §1, §2

[9] = test system: CXCR4 D187E; experiment: 12G5 antibody competition, 293T cells transfected with CXCR4 D187E; type: binding, human; settings: IC50 on CXCR4 D187E relative to wt
Method: as §1, §2

[10] = test system: CXCR4 V112A; experiment: 12G5 antibody competition, 293T cells transfected with CXCR4 V112A; type: binding, human; settings: IC50 on CXCR4 V112A relative to wt
Method: as §1, §2

[11] = test system: CXCR4 E277A; experiment: 12G5 antibody competition, 293T cells transfected with CXCR4 E277A; type: binding, human; settings: IC50 on CXCR4 E277A relative to wt
Method: as §1, §2

[12] = target: CXCR4 D97E + V112A + L41A (human, UniProt P61073-1 1-352, L41A | D97E | V112A); experiment: FACS
[13] = target: CXCR4 D97S (human, UniProt P61073-1 1-352, D97S); experiment: FACS
[14] = target: CXCR4 D187E (human, UniProt P61073-1 1-352, D187E); experiment: FACS
[15] = target: CXCR4 D262A (human, UniProt P61073-1 1-352, D262A); experiment: FACS
[16] = target: CXCR4 E277A (human, UniProt P61073-1 1-352, E277A); experiment: FACS
[17] = target: CXCR4 D97E + V112L (human, UniProt P61073-1 1-352, D97E | V112L); experiment: FACS
[18] = target: CXCR4 L41A (human, UniProt P61073-1 1-352, L41A); experiment: FACS
[19] = target: CXCR4 D97N (human, UniProt P61073-1 1-352, D97N); experiment: FACS
[20] = target: CXCR4 V112A + L41A (human, UniProt P61073-1 1-352, L41A | V112A); experiment: FACS
[21] = target: CXCR4 V112A (human, UniProt P61073-1 1-352, V112A); experiment: FACS
[22] = target: CXCR4 E288D (human, UniProt P61073-1 1-352, E288 to Asp); experiment: FACS
[23] = target: CXCR4 E288A (human, UniProt P61073-1 1-352, E288 to Ala); experiment: FACS
[24] = target: T1, CXCR4 wt (transfected 293T cells) (human, UniProt P61073-1 1-352); experiment: FACS
T1 chain: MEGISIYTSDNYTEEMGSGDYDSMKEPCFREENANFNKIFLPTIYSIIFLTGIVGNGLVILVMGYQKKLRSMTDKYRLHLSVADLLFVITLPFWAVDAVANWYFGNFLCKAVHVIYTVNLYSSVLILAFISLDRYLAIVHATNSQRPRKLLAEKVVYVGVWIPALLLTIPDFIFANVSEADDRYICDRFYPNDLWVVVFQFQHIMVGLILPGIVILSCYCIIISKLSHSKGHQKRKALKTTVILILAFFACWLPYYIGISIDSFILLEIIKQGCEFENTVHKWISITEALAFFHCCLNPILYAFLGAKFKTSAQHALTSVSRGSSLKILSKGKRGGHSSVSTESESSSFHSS

[25] = target: CXCR4 V112L (human, UniProt P61073-1 1-352, V112L); experiment: FACS
[26] = target: CXCR4 D97E + V112A (human, UniProt P61073-1 1-352, D97E | V112A); experiment: FACS
[27] = target: CXCR4 D97Q (human, UniProt P61073-1 1-352, D97Q); experiment: FACS
[28] = target: CXCR4 D97E (human, UniProt P61073-1 1-352, D97E); experiment: FACS
[29] = target: CXCR4 D97T (human, UniProt P61073-1 1-352, D97T); experiment: FACS
[30] = target: T2, C-X-C motif chemokine receptor 4 (CXCR4) on SupT1 cells (human (endogenous in SupT1), UniProt P61073 1-352); experiment: flow cytometry on cells; 12G5 antibody competition on SupT1 cells; peptides in PBS with APC-conjugated 12G5 at a concentration close to its EC50, 4 °C, 2 h; MFI normalized to PBS control; IC50 by nonlinear regression; settings: one partner purified
T2 construct: CXCR4 as expressed on SupT1 cells; source: endogenous, on SupT1 cells

Chain of CXCR4 E288D (P61073 whole entry E288D): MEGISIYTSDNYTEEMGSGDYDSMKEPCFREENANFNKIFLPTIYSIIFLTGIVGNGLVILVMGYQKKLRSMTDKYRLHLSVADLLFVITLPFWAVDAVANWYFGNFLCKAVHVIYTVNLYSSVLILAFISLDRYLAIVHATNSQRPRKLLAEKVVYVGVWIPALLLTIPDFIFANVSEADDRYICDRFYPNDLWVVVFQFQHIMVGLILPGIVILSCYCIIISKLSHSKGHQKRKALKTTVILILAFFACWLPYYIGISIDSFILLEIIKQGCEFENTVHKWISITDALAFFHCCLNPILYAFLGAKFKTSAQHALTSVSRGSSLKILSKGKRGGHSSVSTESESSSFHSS
Chain of CXCR4 D97E + V112A (human, UniProt P61073-1 1-352, D97E | V112A) (P61073 whole entry D97E/V112A): as the sequence (P61073 whole entry E288D) above, with D97E, V112A, D288E counted along it
Chain of CXCR4 D187E (human, UniProt P61073-1 1-352, D187E) (P61073 whole entry D187E): as the sequence (P61073 whole entry E288D) above, with D187E, D288E counted along it
Chain of CXCR4 D97E + V112L (human, UniProt P61073-1 1-352, D97E | V112L) (P61073 whole entry D97E/V112L): as the sequence (P61073 whole entry E288D) above, with D97E, V112L, D288E counted along it
Chain of CXCR4 E277A (human, UniProt P61073-1 1-352, E277A) (P61073 whole entry E277A): as the sequence (P61073 whole entry E288D) above, with E277A, D288E counted along it
Chain of CXCR4 V112L (P61073 whole entry V112L): as the sequence (P61073 whole entry E288D) above, with V112L, D288E counted along it
Chain of CXCR4 L41A (human, UniProt P61073-1 1-352, L41A) (P61073 whole entry L41A): as the sequence (P61073 whole entry E288D) above, with L41A, D288E counted along it
Chain of CXCR4 D97E (human, UniProt P61073-1 1-352, D97E) (P61073 whole entry D97E): as the sequence (P61073 whole entry E288D) above, with D97E, D288E counted along it
Chain of CXCR4 V112A + L41A (human, UniProt P61073-1 1-352, L41A | V112A) (P61073 whole entry L41A/V112A): as the sequence (P61073 whole entry E288D) above, with L41A, V112A, D288E counted along it

“LVRYTKKVPQVSTPTL [EPI-X4, 16-mer fragment of albumin, endogenous antagonist and inverse agonist of CXCR4]” showed a Fold change [1] of 0.7, a Fold change [2] of 19 and a Fold change [3] of 18. It also gave a Fold change [4] of 7, a Fold change [5] of 112 and a Fold change [6] of 2.6. It also gave a Fold change [7] of 32, a Fold change [8] of 11 and a Fold change [9] of 1.2. For the same molecule, the Fold change [10] was 1.6 and the Fold change [11] was 1.3.

B1: WSC02 (peptide)
peptide: IVRWSKKVPCVS
notes: also called EPI-X4 WSC02; source: synthetic peptide (Fmoc solid-phase synthesis, HPLC-purified)
B1 showed an IC50 [12] of 5770 nM, an IC50 [13] of 20400 nM and an IC50 [14] of 490 nM. The IC50 [15] was 520 nM, the IC50 [16] was 770 nM and the IC50 [17] was 2000 nM. For the same molecule, the IC50 [18] was 1710 nM, the IC50 [19] was 527000 nM and the IC50 [20] was 4700 nM. It also gave an IC50 [21] of 670 nM, an IC50 [22] of 83200 nM and an IC50 [23] of over 100000 nM. The IC50 [24] was 1130 nM, the IC50 [25] was 420 nM and the IC50 [26] was 1690 nM. It also gave an IC50 [27] of over 100000 nM, an IC50 [28] of 9540 nM and an IC50 [29] of 35400 nM. It also gave an IC50 [30] of 539 nM.

B2: EPI-X4 JM#21 (peptide)
peptide: ILRWSRKLPCVS
notes: source: synthetic peptide (Fmoc solid-phase synthesis, HPLC-purified)
Work on B2 yielded an IC50 [12] of 400 nM, an IC50 [13] of 5390 nM and an IC50 [14] of 310 nM. For the same molecule, the IC50 [15] was 230 nM, the IC50 [16] was 280 nM and the IC50 [17] was 370 nM. For the same molecule, the IC50 [18] was 720 nM, the IC50 [19] was 11000 nM and the IC50 [21] was 3450 nM. For the same molecule, the IC50 [22] was 14200 nM, the IC50 [23] was 86400 nM and the IC50 [24] was 660 nM. The IC50 [25] was 410 nM, the IC50 [26] was 470 nM and the IC50 [27] was 8050 nM. The IC50 [28] was 1910 nM, the IC50 [29] was 3830 nM and the IC50 [30] was 145 nM.

B3: EPI-X4 408–416-NH2 (peptide)
peptide: LVRYTKKVP-NH2
notes: as for B2
B3 was tested, and the IC50 [30] was 1030 nM.

B4: EPI-X4 408–414-NH2 (peptide)
peptide: LVRYTKK-NH2
notes: as for B2
For B4, the IC50 [30] was 954 nM.

B5: WSC02 408–416-NH2 (peptide)
peptide: IVRWSKKVP-NH2
notes: WSC02 truncated by three residues; source: synthetic peptide (Fmoc solid-phase synthesis, HPLC-purified)
Work on B5 yielded an IC50 [30] of 312 nM.

B6: WSC02 408–414-NH2 (peptide)
peptide: IVRWSKK-NH2
notes: WSC02 truncated by five residues; source: synthetic peptide (Fmoc solid-phase synthesis, HPLC-purified)
In the case of B6, the IC50 [30] is reported as 469 nM.

B7: JM#21 408–416-NH2 (peptide)
peptide: ILRWSRKLP-NH2
notes: JM#21 truncated by three residues; source: synthetic peptide (Fmoc solid-phase synthesis, HPLC-purified)
In the case of B7, the IC50 [30] is reported as 262 nM.

B8: EPI-X4 JM#21 408–414-NH2 (peptide)
peptide: ILRWSRK-NH2
notes: JM#21 truncated by five residues; source: synthetic peptide (Fmoc solid-phase synthesis, HPLC-purified)
Molecule B8 has an IC50 [30] of 157 nM.
